Columns and labels:
[1] = target: human BAFF (Examples 21-23) (human) (UniProt Q9Y275); assay: assay not given (Example 21)
[2] = target: human APRIL (Examples 21-23) (human) (UniProt O75888); assay: assay not given (Example 21)
human APRIL (Examples 21-23) (human), sequence (O75888 105-250 limits assumed): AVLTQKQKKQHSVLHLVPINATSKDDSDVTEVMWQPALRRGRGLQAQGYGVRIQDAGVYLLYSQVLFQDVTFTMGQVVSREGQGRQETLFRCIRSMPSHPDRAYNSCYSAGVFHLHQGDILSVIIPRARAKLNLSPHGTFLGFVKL

Kd [1]	Kd [2]	Binder
0.0023 nM		Benlysta (antibody, INN chains, looked up, V domains shown) VH: QVQLQQSGAEVKKPGSSVRVSCKASGGTFNNNAINWVRQAPGQGLEWMGGIIPMFGTAKYSQNFQGRVAITADESTGTASMELSSLRSEDTAVYYCARSRDLLLFPHHALSPWGRGTMVTVSS VL: SSELTQDPAVSVALGQTVRVTCQGDSLRSYYASWYQQKPGQAPVLVIYGKNNRPSGIPDRFSGSSSGNTASLTITGAQAEDEADYYCSSRDSSGNHWVFGGGTELTVLG
	0.4 nM	BION-1301 (antibody, INN chains, looked up, V domains shown) VH: QVQLVQSGAEVKKPGASVKVSCKASGYTFTDYTIHWVRQATGQGLEWMGWIYPLRGSINYAQKFQGRVTMTADKSISTVYMELSSLRSEDTAVYFCARHGAYYSNAFDYWGQGTLVTVSS VL: EIVMTQSPATLSVSPGERATLSCRASESVDNDGIRFLHWYQQKPGQAPRLLIYRASTRATGIPARFSGSGSRTEFTLTISSLQSEDFAVYYCQQSNKDPYTFGGGTKVEIK

Reference: patent publication US20250042970A1
